This data set concerns the molecule itself. Kind of data set: sedimentation equilibrium, self-association in solution without DNA. As for the experimental part:
Sedimentation Equilibrium. Peptide samples at three concentrations, ranging from ≈10 µM to ≈100 µM, were centrifuged to equilibrium in a Beckman Optima XL-A at 20,000 and 30,000 rpm at 4° C. in a buffer containing 15 mM Tris, pH 7.8, 150 mM KCl, 5 mM MgCl_2, 20 µM ZnSO_4, and 0.2 mM DTT. Solvent density and partial specific volumes of peptides were calculate at described (13). The sedimentation data were analyzed by methods described in refs. 14 and 15, using the program NONLIN (16).

B1: Zif12 peptide (amino acids 2-59 of Zif268, Gly-Ser dipeptide at the N terminus) (other)
chain: not shown
notes: range 2-59; No N-terminal peptide extension; also called isolated Zif12 domain; Zif1-Zif2 construct
Regarding B1, the binding result is listed as “no binding (tested: ≈100 µM)”.

Values taken from patent US7943731 (MIT, dated 2011).
